From PMC3693442 (Science (New York, N.Y.), 2013) come the findings set out here.

The experiment deals with KLC2^TPR (tetratricopeptide repeat domain of kinesin light chain 2), wild type (UniProt O88448 217-426). In words: fluorescence polarisation.

Turning to TNLEWDDSAI [SKIP^WD peptide (ten amino acid long peptide centered on the WD motif of SKIP)], binding was characterised by a dissociation constant (Kd) of 24 µM.

On to PSTDWEDGDL [SKIP^WE peptide (equivalent peptide centered on the WE motif of SKIP)], for which the Kd is more than 110 µM.
